Test results published in patent US9827292B2, “Use of KGF in the treatment of menopausal disorders” (Università degli Studi di Roma “La Sapienza”, priority 2012, dated 2017).

B1: keratinocyte growth factor (protein, listed as Homo sapiens)
chain: MHKWILTWILPTLLYRSCFHIICLVGTISLACNDMTPEQMATNVNCSSPERHTRSYDYMEGGDIRVRRLFCRTQWYLRIDKRGKVKGTQEMKNNYNIMEIRTVAVGIVAIKGVESEFYLAMNKEGKLYAKKECNEDCNFKELILENHYNTYASAKWTHNGGEMFVALNQKGIPVRGKKTKKEQKTAHFLPMAIT
notes: human recombinant KGF (Upstate Biotechnology)

Experiments:
MAPK p38 = test: Western blot of p38 phosphorylation in MCF-7 cells; type: cell-based, human; details: 20 ng/ml, 5 or 30 minutes, FIG. 2B
Description: The oestrogen receptor α-positive MCF-7 human breast adenocarcinoma cell line, acquired from American Type Culture Collection (no. HTB-22, ATCC-LGC Promochem, Teddington, UK), was cultured in Dulbecco's modified eagle's medium (DMEM; Invitrogen, Karlsruhe, Germany), supplemented with 10% foetal bovine serum (FBS; Invitrogen) and antibiotics. Primary cultures of human oestrogen-sensitive keratinocytes (KCs) were established from 1 cm^2 full-thickness mucosal biopsy of the vaginal vestibule. Following enzymatic dissociation, the keratinocytes were seeded onto culture plates coated with collagen IV (10 mg/ml), as previously reported [Panici et al, 2007], and were maintained in basal medium of the keratinocytes (KBM, Lonza) supplemented with aliquots of KGM (Lonza), with medium change twice a week. […]
MCF-7 cells untreated or treated with KGF or E2 were lysed in RIPA buffer. […] The bound antibody was detected by enhanced chemiluminescence detection reagents (Pierce Biotechnology, Inc, Rockford, Ill., USA), according to manufacturer's instructions. […] Densitometric analysis was performed using Quantity One Program (Bio-Rad Laboratories srl, Segrate, MI, Italy).

vaginal epithelium = test: Vaginal atrophy model in ovariectomised CD1 mice, local hydrogel treatment, histology; type: in vivo, mouse; details: for cornification of vaginal epithelium (hematoxylin and eosin) / stratification of the vaginal epithelium and hyperkeratosis (hematoxylin and eosin): low and high doses, 60 days; for cornification of vaginal epithelium (hematoxylin and eosin): not in vehicle group, FIG. 8A; for stratification of the vaginal epithelium and hyperkeratosis (hematoxylin and eosin): versus vehicle only, FIG. 7B
Description: The mouse strain CD1 was used in this study (Charles Rivers). The mice were held in a standard housing for laboratory animals with controlled lighting (12 h/day) and temperature (25±1° C.) and were provided with food and water ab libitum. All the experimental protocols concerning animals were in line with the Guidelines of Sapienza University for the care and use of laboratory animals and were approved by the Ethical Committee of the aforesaid institution. Forty female mice were subjected to an ovariectomy for the purpose of inducing vaginal atrophy and were administered a diet of Altromin C1000 without phytoestrogens (Altromin, Lage, Germany) for the duration of the experiments. After 30 days, the mice were treated locally, introducing daily into the vaginal canal 25 μl of hydrogel loaded with KGF (10 or 30 ng/day) or with E2 (30 ng/day or 1 μg/day). A control group was treated only with hydrogel. After 60 days of treatment, the mice were killed and the vaginas were immediately explanted, fixed in formalin and processed for histological analysis.
Serial sections of the vaginal mucus obtained from four groups of mice were stained with hematoxylin/eosin, placed permanently under a glass plate and analysed histologically. The thickness and the strata of epithelial cells of the vagina were then determined in three animals for each group, in three images for each animal (10× enlargement). Mean values were obtained from five measurements of each image. For the purpose of quantifying the thickness of the vaginal epithelium, the vertical distance between the lower surface of the cells in the stratum basale and the apical surface of the cells in the stratum superficiale was measured with the aid of NIH Image J v 1.56 (National Institutes of Health, Bethesda, Md.), and denoted as thickness. To estimate the number of vaginal epithelial layers, the layer of cells covering five contiguous basal cells was counted in the sample.
Serial sections of the vaginal mucus obtained from the four groups of mice were analysed for the expression of PCNA (Proliferating Cell Nuclear Antigen, a marker of cell proliferation) by means of immunohistochemistry. The sections were elaborated using the technique of avidin-biotin-peroxidase complex (DAKO, Glostrup, Denmark) and incubated with mouse anti-A-rat-PCNA monoclonal antibody (clone P10, 1:4000) (Abcam, Cambridge, UK), which recognises proliferant cells.
All the animals enrolled in the study were fed with a special diet devoid of oestrogens (special altromin C1000 phytoestrogen-free diet). The mice subject to an ovariectomy were then divided into […]: one group received no treatment; one group received only the vehicle; one group received the vehicle+E2 30 ng/day; one group received the vehicle+E2 1 μg/day; one group received the vehicle+KGF 10 ng/day; and one group received the vehicle+KGF 30 ng/day.
The animals were killed and the vaginas removed and immediately fixed in formalin and processed for histology. Vaginal epithelium of the treated mice was analysed histologically by means of hematoxylin/eosin and was compared with the epithelium of the group of mice not subjected to ovariectomy (FIGS. 7B and 8A). The criteria adopted in order to determine the trophism of the vaginal mucus were the thickness (evidenced by counting the number of epithelial layers present and by measuring the thickness of the epithelium in μm and also by means of the ratio between area of the epithelial layer and length of the basal membrane) (FIG. 8B) and the proliferative ability of the keratinocytes (determined by means of analyses of the expression of PCNA, a marker of cell proliferation) (FIG. 9).

[1] = system: oestrogen response elements (EREs); test: ERE-LUC dual-luciferase reporter assay in MCF-7 cells; type: cell-based, human; details: 24 h treatment, FIG. 5
Description: MCF-7 cells were seeded onto 24-well plates with a cell/well density of […] and were co-transfected with 1 μg of the 3×ERE TATA LUC construct, a plasmid containing the reporter gene for firefly luciferase under the control of three DNA sequences to which the ER binds, called oestrogen response elements (EREs) (Addgene), and with 300 ng of control pRL-TK plasmid (renilla luciferase) for normalisation of the efficiency of the transfection process. The transfections were carried out using lipofectamine 2000 (Invitrogen) according to manufacturer's instructions. After 6 h, the cells were treated with KGF or E2. The luciferase activity was determined using a dual-luciferase reporter assay system (Promega) 24 h after the treatment, according to manufacturer's protocol. All the transfections were conducted in triplicate.

Molecule | phosphorylation of p38 (MAPK p38) | cornification of vaginal epithelium (hematoxylin and eosin) (vaginal epithelium) | stratification of the vaginal epithelium and hyperkeratosis (hematoxylin and eosin) (vaginal epithelium) | activation of ERE-luciferase construct (genomic pathway) [1] | increase in epithelial thickness, KGF versus E2 (vaginal epithelium; KGF at 30 ng/25 ul and E2 at 1 ug/25 ul, FIG. 8B) | epithelium lubrication / mucinous (PAS-positive) cells (vaginal epithelium; topical KGF, PAS staining, FIG. 9B) | vaginal thinning / epithelial cell proliferation (vaginal epithelium; topical KGF, ovariectomised mice, FIG. 9)
C[C@]12CC[C@@H]3c4ccc(O)cc4CC[C@H]3[C@@H]1CC[C@@H]2O [E2, 17β-oestradiol] | able to phosphorylate the protein p38 | Cornificated vaginal epithelium was observed | significant induction of stratification of the vaginal epithelium and hyperkeratosis | able to determine the activation of such a construction |  |  | 
B1 | able to phosphorylate the protein p38 | Cornificated vaginal epithelium was observed | significant induction of stratification of the vaginal epithelium and hyperkeratosis | absence of stimulation of the genomic pathway of the oestrogens | same increase in epithelial thickness | restore epithelium lubrication through stimulation of mucinous cells | able to counteract vaginal thinning by stimulating epithelial cells proliferation
